A word on the Kd: it is the constant that tells how readily two partners part at equilibrium.

The record followed here is patent US20120121587A1 (Chugai, published 2012).

The assay addresses T1, Human recombinant AXL-FND1 (GST-FND1), from pET-41b(+) (human, UniProt P30530 225-331).
T1 construct: Expressed in E. coli, purified on Glutathione Sepharose; analyte in all Biacore measurements; GST put first by the usual layout of pET-41; not shown: GST-tag of vector pET-41b(+) (Novagen)
T1 sequence (looked up): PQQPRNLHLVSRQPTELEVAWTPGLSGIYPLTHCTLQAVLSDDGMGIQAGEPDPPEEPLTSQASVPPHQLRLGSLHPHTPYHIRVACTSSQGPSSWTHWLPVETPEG
As to the kind of experiment: SPR (Biacore T100): antibody captured on Protein A, GST-FND1 as analyte. An outline of the steps:
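Antibodies (1 μg/mL) were captured for 2 min on a Protein A CM5 chip. GST-FND1 (0.5 and 2.0 μg/mL) in HBS-EP+ was flowed at 30 μL/min with 2 min association and 2 min dissociation at 25° C. ka and kd were fitted from sensorgrams and Kd was calculated from them.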
(In general: Surface plasmon resonance follows binding to a sensor surface in real time, without labels.)

B1: H46/L34 (antibody, human IgG1, kappa)
heavy: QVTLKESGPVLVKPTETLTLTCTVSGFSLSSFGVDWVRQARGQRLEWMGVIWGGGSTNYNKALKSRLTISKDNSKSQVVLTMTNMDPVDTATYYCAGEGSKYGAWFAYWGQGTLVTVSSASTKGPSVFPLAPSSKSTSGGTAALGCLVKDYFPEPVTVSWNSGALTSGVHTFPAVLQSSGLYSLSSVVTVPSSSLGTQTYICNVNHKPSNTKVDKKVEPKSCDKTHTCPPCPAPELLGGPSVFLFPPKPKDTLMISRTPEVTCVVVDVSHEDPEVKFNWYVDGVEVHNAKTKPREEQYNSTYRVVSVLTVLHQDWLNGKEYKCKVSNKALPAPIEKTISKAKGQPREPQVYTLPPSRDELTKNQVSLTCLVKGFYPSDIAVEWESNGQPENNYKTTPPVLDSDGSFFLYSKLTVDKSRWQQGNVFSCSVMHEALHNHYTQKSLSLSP
light: DVVMTQSPLSLPVTLGRPASISCRSSRNIVHTNGNTYLEWYQQKPGKAPKLLIYKVSNRFSGVPDRFSGSGSGTDFTLKISRVEAEDVGVYYCFQGSHIPFTFGQGTKLEIKRTVAAPSVFIFPPSDEQLKSGTASVVCLLNNFYPREAKVQWKVDNALQSGNSQESVTEQDSKDSTYSLSSTLTLSKADYEKHKVYACEVTHQGLSSPVTKSFNRGEC
With B1, the Kd was 2.22 nM.

B2: H46/L37 (antibody, human IgG1, kappa)
heavy: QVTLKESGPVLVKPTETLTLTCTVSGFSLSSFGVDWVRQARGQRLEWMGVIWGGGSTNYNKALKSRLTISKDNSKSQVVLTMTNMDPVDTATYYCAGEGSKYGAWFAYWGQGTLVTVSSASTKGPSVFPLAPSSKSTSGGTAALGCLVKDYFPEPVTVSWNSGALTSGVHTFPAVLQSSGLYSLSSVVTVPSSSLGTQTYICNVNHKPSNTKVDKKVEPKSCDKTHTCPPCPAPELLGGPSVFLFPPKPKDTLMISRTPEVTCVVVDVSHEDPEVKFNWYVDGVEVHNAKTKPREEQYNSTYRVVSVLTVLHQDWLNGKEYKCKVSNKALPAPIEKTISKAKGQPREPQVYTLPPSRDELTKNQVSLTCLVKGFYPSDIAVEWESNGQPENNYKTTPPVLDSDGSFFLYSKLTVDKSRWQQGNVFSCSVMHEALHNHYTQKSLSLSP
light: DVVMTQSPLSLPVTLGRPASISCRSSRNIVHTNGNTYLEWYQQKPGKAPKLLIYKVSNRFSGVPDRFSGSGSGTDFTLKISRVEAEDVGVYYCFQGSHIPFTFGRGTKLEIKRTVAAPSVFIFPPSDEQLKSGTASVVCLLNNFYPREAKVQWKVDNALQSGNSQESVTEQDSKDSTYSLSSTLTLSKADYEKHKVYACEVTHQGLSSPVTKSFNRGEC
For the molecule B2, the Kd was 2.3 nM.

B3: H47/L10 (antibody, human IgG1, kappa)
heavy: not shown
light: DVVMTQSPLSLPVTLGQPASISCRSSQNIVHTNGNTYLEWYQQKPGKAPELLIYKVSNRFSGVPDRFSGSGSGTDFTLKISRVEAEDVGVYYCFQGSHIPFTFGQGTKVEIERTVAAPSVFIFPPSDEQLKSGTASVVCLLNNFYPREAKVQWKVDNALQSGNSQESVTEQDSKDSTYSLSSTLTLSKADYEKHKVYACEVTHQGLSSPVTKSFNRGEC
Turning to B3, the Kd amounted to 1.89 nM.

B4: H47/L31 (antibody, human IgG1, kappa)
heavy: not shown
light: DVVMTQSPLSLPVTLGQPASISCRSSRNIVHTNGNTYLEWYQQKPGKAPKLLIYKVSNRFSGVPDRFSGSGSGTDFTLKISRVEAEDVGVYYCFQGSHIPFTFGQGTKLEIKRTVAAPSVFIFPPSDEQLKSGTASVVCLLNNFYPREAKVQWKVDNALQSGNSQESVTEQDSKDSTYSLSSTLTLSKADYEKHKVYACEVTHQGLSSPVTKSFNRGEC
As for B4, the Kd turned out to be 1.83 nM.

B5: H48/L0 (antibody, human IgG1, kappa)
heavy: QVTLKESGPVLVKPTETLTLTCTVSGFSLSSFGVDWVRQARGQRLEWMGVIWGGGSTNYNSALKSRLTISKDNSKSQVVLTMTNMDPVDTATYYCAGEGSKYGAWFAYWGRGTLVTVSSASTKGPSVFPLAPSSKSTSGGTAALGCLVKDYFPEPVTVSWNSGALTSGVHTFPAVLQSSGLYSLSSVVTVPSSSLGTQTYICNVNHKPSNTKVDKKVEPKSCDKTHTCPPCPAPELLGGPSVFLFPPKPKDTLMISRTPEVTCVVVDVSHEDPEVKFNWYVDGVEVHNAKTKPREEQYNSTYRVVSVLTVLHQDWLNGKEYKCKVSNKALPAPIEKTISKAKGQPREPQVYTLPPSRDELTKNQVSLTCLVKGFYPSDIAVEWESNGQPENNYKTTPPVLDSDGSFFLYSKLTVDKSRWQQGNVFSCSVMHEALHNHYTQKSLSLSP
light: DVVMTQSPLSLPVTLGQPASISCRSSQNIVHTNGNTYLEWYQQKPGKAPELLIYKVSNRFSGVPDRFSGSGSGTDFTLKISRVEAEDVGVYYCFQGSHIPFTFGQGTKLEIKRTVAAPSVFIFPPSDEQLKSGTASVVCLLNNFYPREAKVQWKVDNALQSGNSQESVTEQDSKDSTYSLSSTLTLSKADYEKHKVYACEVTHQGLSSPVTKSFNRGEC
As to B5, the equilibrium dissociation constant (Kd) came out at 2.09 nM.

B6: H47/L35 (antibody, human IgG1, kappa)
heavy: not shown
light: DVVMTQSPLSLPVTLGQPASISCRSSRNIVHTNGNTYLEWYQQKPGKAPKLLIYKVSNRFSGVPDRFSGSGSGTDFTLKISRVEAEDVGVYYCFQGSHIPFTFGRGTKLEIKRTVAAPSVFIFPPSDEQLKSGTASVVCLLNNFYPREAKVQWKVDNALQSGNSQESVTEQDSKDSTYSLSSTLTLSKADYEKHKVYACEVTHQGLSSPVTKSFNRGEC
For the molecule B6, the dissociation constant (Kd) worked out at 1.68 nM.

B7: H47/L0 (antibody, human IgG1, kappa)
heavy: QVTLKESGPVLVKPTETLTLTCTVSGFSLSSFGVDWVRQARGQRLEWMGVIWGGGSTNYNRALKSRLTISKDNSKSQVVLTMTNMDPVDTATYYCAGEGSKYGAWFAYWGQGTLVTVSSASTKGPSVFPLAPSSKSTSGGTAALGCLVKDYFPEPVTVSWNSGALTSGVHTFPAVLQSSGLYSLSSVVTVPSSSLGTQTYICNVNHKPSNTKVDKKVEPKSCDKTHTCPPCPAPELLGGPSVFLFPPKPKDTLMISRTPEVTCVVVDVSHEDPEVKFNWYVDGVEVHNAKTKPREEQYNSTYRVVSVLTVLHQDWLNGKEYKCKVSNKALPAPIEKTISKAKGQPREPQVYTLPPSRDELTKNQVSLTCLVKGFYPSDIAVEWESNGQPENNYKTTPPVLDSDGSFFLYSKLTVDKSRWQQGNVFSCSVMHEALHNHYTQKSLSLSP
light: DVVMTQSPLSLPVTLGQPASISCRSSQNIVHTNGNTYLEWYQQKPGKAPELLIYKVSNRFSGVPDRFSGSGSGTDFTLKISRVEAEDVGVYYCFQGSHIPFTFGQGTKLEIKRTVAAPSVFIFPPSDEQLKSGTASVVCLLNNFYPREAKVQWKVDNALQSGNSQESVTEQDSKDSTYSLSSTLTLSKADYEKHKVYACEVTHQGLSSPVTKSFNRGEC
Consider B7, for which the Kd stood at 1.84 nM.

B8: H47/L37 (antibody, human IgG1, kappa)
heavy: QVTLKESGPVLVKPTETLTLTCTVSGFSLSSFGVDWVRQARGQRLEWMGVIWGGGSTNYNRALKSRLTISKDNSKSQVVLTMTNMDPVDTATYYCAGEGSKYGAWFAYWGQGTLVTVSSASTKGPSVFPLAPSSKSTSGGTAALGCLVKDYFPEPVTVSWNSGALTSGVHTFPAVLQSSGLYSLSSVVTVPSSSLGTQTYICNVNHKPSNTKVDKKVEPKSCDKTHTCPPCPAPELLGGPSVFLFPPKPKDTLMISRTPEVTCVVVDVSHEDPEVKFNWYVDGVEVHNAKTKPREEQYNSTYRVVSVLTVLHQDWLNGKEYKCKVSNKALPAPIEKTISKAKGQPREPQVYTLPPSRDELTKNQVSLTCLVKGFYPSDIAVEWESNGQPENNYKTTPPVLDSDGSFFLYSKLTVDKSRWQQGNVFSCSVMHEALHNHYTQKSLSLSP
light: DVVMTQSPLSLPVTLGRPASISCRSSRNIVHTNGNTYLEWYQQKPGKAPKLLIYKVSNRFSGVPDRFSGSGSGTDFTLKISRVEAEDVGVYYCFQGSHIPFTFGRGTKLEIKRTVAAPSVFIFPPSDEQLKSGTASVVCLLNNFYPREAKVQWKVDNALQSGNSQESVTEQDSKDSTYSLSSTLTLSKADYEKHKVYACEVTHQGLSSPVTKSFNRGEC
With B8, the Kd worked out at 2.38 nM.

B9: H47/L11 (antibody, human IgG1, kappa)
heavy: not shown
light: DVVMTQSPLSLPVTLGQPASISCQSSQNIVHTNGNTYLEWYQQKPGKAPELLIYKVSNRFSGVPDRFSGSGSGTDFTLKISRVEAEDVGVYYCFQGSHIPFTFGQGTKVEIERTVAAPSVFIFPPSDEQLKSGTASVVCLLNNFYPREAKVQWKVDNALQSGNSQESVTEQDSKDSTYSLSSTLTLSKADYEKHKVYACEVTHQGLSSPVTKSFNRGEC
With B9, the equilibrium dissociation constant (Kd) turned out to be 1.83 nM.

B10: H46/L35 (antibody, human IgG1, kappa)
heavy: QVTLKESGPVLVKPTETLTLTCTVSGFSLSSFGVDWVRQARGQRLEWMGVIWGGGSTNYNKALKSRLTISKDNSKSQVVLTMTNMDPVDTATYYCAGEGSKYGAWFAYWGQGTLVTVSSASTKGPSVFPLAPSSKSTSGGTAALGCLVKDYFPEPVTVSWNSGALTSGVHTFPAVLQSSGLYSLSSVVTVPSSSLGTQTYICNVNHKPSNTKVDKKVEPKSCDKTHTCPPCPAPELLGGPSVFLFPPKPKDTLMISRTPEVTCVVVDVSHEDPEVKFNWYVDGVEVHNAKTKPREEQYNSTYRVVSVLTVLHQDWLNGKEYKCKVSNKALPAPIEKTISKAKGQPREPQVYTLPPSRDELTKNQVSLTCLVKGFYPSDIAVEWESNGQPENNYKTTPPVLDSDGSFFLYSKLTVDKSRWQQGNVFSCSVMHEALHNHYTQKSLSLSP
light: DVVMTQSPLSLPVTLGQPASISCRSSRNIVHTNGNTYLEWYQQKPGKAPKLLIYKVSNRFSGVPDRFSGSGSGTDFTLKISRVEAEDVGVYYCFQGSHIPFTFGRGTKLEIKRTVAAPSVFIFPPSDEQLKSGTASVVCLLNNFYPREAKVQWKVDNALQSGNSQESVTEQDSKDSTYSLSSTLTLSKADYEKHKVYACEVTHQGLSSPVTKSFNRGEC
Take B10: the Kd came out at 2.04 nM.

B11: H48/L1 (antibody, human IgG1, kappa)
heavy: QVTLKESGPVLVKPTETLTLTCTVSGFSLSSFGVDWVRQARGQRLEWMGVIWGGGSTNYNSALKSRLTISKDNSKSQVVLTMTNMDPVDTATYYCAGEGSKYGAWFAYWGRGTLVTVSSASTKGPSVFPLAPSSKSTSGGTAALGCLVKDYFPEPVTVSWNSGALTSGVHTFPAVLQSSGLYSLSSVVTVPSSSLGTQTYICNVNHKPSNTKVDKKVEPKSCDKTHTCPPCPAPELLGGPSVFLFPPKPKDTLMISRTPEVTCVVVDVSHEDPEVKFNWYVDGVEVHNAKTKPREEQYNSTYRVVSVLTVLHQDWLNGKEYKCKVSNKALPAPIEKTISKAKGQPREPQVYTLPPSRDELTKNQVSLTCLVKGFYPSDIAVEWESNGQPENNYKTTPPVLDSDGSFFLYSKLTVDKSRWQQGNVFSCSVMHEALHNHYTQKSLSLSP
light: DVVMTQSPLSLPVTLGQPASISCQSSQNIVHTNGNTYLEWYQQKPGKAPELLIYKVSNRFSGVPDRFSGSGSGTDFTLKISRVEAEDVGVYYCFQGSHIPFTFGQGTKLEIKRTVAAPSVFIFPPSDEQLKSGTASVVCLLNNFYPREAKVQWKVDNALQSGNSQESVTEQDSKDSTYSLSSTLTLSKADYEKHKVYACEVTHQGLSSPVTKSFNRGEC
On to B11, for which the dissociation constant Kd is 2.09 nM.

B12: H47/L34 (antibody, human IgG1, kappa)
heavy: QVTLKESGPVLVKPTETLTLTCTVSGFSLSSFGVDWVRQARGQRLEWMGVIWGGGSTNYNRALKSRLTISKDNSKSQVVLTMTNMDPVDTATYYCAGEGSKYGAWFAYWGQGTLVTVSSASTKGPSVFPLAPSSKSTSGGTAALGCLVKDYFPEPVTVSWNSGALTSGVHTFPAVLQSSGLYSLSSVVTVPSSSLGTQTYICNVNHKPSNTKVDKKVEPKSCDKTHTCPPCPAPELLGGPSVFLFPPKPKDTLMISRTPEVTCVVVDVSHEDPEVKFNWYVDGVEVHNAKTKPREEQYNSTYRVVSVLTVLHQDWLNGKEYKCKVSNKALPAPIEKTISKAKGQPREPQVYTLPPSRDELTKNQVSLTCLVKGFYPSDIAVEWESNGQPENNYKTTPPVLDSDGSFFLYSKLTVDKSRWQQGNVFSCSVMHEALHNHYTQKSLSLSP
light: DVVMTQSPLSLPVTLGRPASISCRSSRNIVHTNGNTYLEWYQQKPGKAPKLLIYKVSNRFSGVPDRFSGSGSGTDFTLKISRVEAEDVGVYYCFQGSHIPFTFGQGTKLEIKRTVAAPSVFIFPPSDEQLKSGTASVVCLLNNFYPREAKVQWKVDNALQSGNSQESVTEQDSKDSTYSLSSTLTLSKADYEKHKVYACEVTHQGLSSPVTKSFNRGEC
Regarding B12, the dissociation constant (Kd) amounted to 2.2 nM.

B13: H48/L10 (antibody, human IgG1, kappa)
heavy: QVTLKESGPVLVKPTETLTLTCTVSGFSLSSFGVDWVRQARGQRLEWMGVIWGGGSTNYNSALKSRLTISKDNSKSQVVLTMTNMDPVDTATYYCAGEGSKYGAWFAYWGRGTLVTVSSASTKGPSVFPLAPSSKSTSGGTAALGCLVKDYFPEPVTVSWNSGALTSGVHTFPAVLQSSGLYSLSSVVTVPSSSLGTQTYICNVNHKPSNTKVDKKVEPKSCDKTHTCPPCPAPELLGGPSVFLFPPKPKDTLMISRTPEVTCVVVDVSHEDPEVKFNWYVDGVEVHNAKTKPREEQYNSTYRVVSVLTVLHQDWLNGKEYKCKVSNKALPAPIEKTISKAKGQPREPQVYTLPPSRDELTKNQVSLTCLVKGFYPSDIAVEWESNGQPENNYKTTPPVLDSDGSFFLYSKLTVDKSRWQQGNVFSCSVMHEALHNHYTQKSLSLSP
light: DVVMTQSPLSLPVTLGQPASISCRSSQNIVHTNGNTYLEWYQQKPGKAPELLIYKVSNRFSGVPDRFSGSGSGTDFTLKISRVEAEDVGVYYCFQGSHIPFTFGQGTKVEIERTVAAPSVFIFPPSDEQLKSGTASVVCLLNNFYPREAKVQWKVDNALQSGNSQESVTEQDSKDSTYSLSSTLTLSKADYEKHKVYACEVTHQGLSSPVTKSFNRGEC
B13: the Kd is 2.06 nM.

B14: H47/L27 (antibody, human IgG1, kappa)
heavy: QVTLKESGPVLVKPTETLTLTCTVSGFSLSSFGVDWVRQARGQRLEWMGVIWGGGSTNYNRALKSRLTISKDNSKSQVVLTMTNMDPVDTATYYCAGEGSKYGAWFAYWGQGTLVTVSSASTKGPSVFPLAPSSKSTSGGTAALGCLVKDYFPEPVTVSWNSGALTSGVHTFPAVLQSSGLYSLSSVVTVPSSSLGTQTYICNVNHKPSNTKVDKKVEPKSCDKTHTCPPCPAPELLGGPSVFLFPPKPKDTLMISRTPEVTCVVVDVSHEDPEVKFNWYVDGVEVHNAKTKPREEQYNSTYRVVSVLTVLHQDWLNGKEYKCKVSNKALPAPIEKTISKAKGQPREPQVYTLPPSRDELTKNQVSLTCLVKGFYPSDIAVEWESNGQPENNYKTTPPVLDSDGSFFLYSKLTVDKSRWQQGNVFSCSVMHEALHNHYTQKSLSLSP
light: DVVMTQSPLSLPVTLGQPASISCRSSRNIVHTNGNTYLEWYQQKPGKAPELLIYKVSNRFSGVPDRFSGSGSGTDFTLKISRVEAEDVGVYYCFQGSHIPFTFGQGTKLEIKRTVAAPSVFIFPPSDEQLKSGTASVVCLLNNFYPREAKVQWKVDNALQSGNSQESVTEQDSKDSTYSLSSTLTLSKADYEKHKVYACEVTHQGLSSPVTKSFNRGEC
Turning to B14, the Kd turned out to be 1.6 nM.

B15: H47/L28 (antibody, human IgG1, kappa)
heavy: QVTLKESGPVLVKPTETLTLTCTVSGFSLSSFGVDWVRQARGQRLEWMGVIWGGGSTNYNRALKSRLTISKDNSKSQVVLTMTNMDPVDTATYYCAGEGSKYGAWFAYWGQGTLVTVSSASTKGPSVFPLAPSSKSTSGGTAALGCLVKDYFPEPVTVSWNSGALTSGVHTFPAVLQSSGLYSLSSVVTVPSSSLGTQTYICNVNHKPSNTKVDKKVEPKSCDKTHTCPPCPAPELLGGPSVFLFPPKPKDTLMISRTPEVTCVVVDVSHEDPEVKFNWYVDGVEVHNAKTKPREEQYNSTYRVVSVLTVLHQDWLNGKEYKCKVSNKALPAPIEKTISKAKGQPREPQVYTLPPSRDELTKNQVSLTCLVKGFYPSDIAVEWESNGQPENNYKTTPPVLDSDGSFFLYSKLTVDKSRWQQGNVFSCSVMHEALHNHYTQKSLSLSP
light: DVVMTQSPLSLPVTLGQPASISCRSSQNIVHTNGNTYLEWYQQKPGKAPKLLIYKVSNRFSGVPDRFSGSGSGTDFTLKISRVEAEDVGVYYCFQGSHIPFTFGQGTKLEIKRTVAAPSVFIFPPSDEQLKSGTASVVCLLNNFYPREAKVQWKVDNALQSGNSQESVTEQDSKDSTYSLSSTLTLSKADYEKHKVYACEVTHQGLSSPVTKSFNRGEC
Turning to B15, the Kd was 1.52 nM.

B16: H47/L1 (antibody, human IgG1, kappa)
heavy: not shown
light: DVVMTQSPLSLPVTLGQPASISCQSSQNIVHTNGNTYLEWYQQKPGKAPELLIYKVSNRFSGVPDRFSGSGSGTDFTLKISRVEAEDVGVYYCFQGSHIPFTFGQGTKLEIKRTVAAPSVFIFPPSDEQLKSGTASVVCLLNNFYPREAKVQWKVDNALQSGNSQESVTEQDSKDSTYSLSSTLTLSKADYEKHKVYACEVTHQGLSSPVTKSFNRGEC
For B16, the Kd turned out to be 1.89 nM.
